According to article PMC4980432, “Structure of a Complete ATP Synthase Dimer Reveals the Molecular Basis of Inner Mitochondrial Membrane Morphology” (Molecular Cell, 2016):

Experiments:
[1] = target: T1, Y. lipolytica F1Fo-ATP synthase subunit a (Yarrowia lipolytica, UniProt Q36258 7-255); test: cryo-EM structure; single-particle cryo-EM of the purified dimer 2YLF1Fo; C2 symmetry imposed; 7.8 Å overall, 6.9 Å for F1 and 6.2 Å for the Fo dimer after masking; fitted with the YLF1c10 X-ray structure and homology models of the peripheral stalk; settings: both partners purified
T1 construct: subunit a of the mitochondrial F1Fo-ATP synthase, Yarrowia lipolytica; mitochondrially encoded; helices aH1 to aH6; source: endogenous, purified from Y. lipolytica mitochondria as part of 2YLF1Fo
T1 sequence (looked up): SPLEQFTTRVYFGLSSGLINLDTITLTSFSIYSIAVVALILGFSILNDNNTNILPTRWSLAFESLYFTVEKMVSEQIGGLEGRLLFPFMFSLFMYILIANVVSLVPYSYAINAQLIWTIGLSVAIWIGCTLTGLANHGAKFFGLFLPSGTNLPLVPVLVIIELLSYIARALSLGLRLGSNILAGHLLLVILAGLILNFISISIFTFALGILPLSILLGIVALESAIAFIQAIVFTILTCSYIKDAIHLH

[2] = target: the molecule itself; test: crystal structure; YLF1c10 subcomplex crystallised from the 1YLF1Fo complex without added nucleotides or inhibitors; 3.5 Å; molecular replacement with a model based on S. cerevisiae F1c10
[3] = target: T2, Y. lipolytica F1Fo-ATP synthase subunit α (Yarrowia lipolytica, UniProt Q6C326 25-536); test: cryo-EM structure; single-particle cryo-EM of the purified dimer 2YLF1Fo; C2 symmetry imposed; 7.8 Å overall, 6.9 Å for F1 and 6.2 Å for the Fo dimer after masking; fitted with the YLF1c10 X-ray structure and homology models of the peripheral stalk; settings: both partners purified
T2 construct: subunit α of the mitochondrial F1Fo-ATP synthase, Yarrowia lipolytica; three copies in each F1 head, in the states αE, αTP and αDP; also called αE; αTP; source: endogenous, purified from Y. lipolytica mitochondria as part of 2YLF1Fo, 1YLF1Fo and the YLF1c10 subcomplex
T2 sequence (Q6C326 25-536): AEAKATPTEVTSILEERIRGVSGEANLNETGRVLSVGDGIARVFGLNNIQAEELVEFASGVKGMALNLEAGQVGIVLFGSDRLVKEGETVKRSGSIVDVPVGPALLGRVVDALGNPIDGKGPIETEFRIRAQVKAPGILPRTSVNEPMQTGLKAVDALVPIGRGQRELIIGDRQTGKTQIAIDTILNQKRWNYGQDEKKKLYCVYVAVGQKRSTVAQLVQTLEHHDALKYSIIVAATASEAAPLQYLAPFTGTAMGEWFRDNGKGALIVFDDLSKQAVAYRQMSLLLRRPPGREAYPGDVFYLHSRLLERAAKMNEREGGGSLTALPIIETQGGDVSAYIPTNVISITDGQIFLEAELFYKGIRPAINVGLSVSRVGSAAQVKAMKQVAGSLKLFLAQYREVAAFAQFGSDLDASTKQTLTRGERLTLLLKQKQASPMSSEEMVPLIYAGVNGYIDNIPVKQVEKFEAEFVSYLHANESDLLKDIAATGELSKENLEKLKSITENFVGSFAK

[4] = target: T3, e/g heterodimer of the Y. lipolytica F1Fo-ATP synthase (subunits e and g) (Yarrowia lipolytica, UniProt B5FVG3 1-90; B5FVB8 1-138); test: as above; settings: both partners purified
T3 construct: subunit e of the mitochondrial F1Fo-ATP synthase, Yarrowia lipolytica; predicted N-terminal trans-membrane helix with a GxxxG motif and a hydrophilic C terminus; subunit g of the mitochondrial F1Fo-ATP synthase, Yarrowia lipolytica; N-terminal matrix domain and predicted C-terminal trans-membrane helix with a GxxxG motif; the two subunits are not resolved from each other in the 6.2 Å map; also …
T3 sequence (looked up) 1: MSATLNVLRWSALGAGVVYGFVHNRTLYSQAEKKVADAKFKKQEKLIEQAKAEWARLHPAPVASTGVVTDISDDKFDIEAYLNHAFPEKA
T3 sequence (looked up) 2: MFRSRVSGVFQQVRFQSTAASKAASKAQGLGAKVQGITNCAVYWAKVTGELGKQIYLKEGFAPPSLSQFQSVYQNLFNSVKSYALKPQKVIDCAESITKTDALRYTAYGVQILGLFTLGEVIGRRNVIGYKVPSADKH

[5] = target: the molecule itself; test: as above
[6] = target: T2, Y. lipolytica F1Fo-ATP synthase subunit …; test: crystal structure; YLF1c10 subcomplex crystallised from the 1YLF1Fo complex without added nucleotides or inhibitors; 3.5 Å; molecular replacement with a model based on S. cerevisiae F1c10; settings: both partners purified

B1: Y. lipolytica F1Fo-ATP synthase subunit c (natural protein, Yarrowia lipolytica, UniProt Q37695 1-76, looked up)
chain: MQLVLAGKYIGAGLASIGLVGAGIGIAIVFAALINGVSRNPALKGQLFTYSILGFALSEATGLFALMIAFLLLYAV
notes: subunit c (subunit 9) of the mitochondrial F1Fo-ATP synthase, Yarrowia lipolytica; mitochondrially encoded; ten copies form the rotor ring; also called c subunit; c-ring; source: endogenous, purified from Y. lipolytica mitochondria as part of 2YLF1Fo and the YLF1c10 subcomplex
binding result [1]: binds | stoichiometry N [2]: 10

B2: Y. lipolytica F1Fo-ATP synthase subunit h (natural protein, Yarrowia lipolytica, UniProt Q6C2V6 20-108, looked up)
chain: NLISEAYTREVRAFKAPKLSAKDAEGQVKPWSAPSAPKPPVVEGADAAELQAYAEAPVDVEGQTNSKSASPQANDEDWLAFEEEEGVAV
notes: peripheral stalk subunit h of the mitochondrial F1Fo-ATP synthase, Yarrowia lipolytica; also called equivalent of bovine F6; source: endogenous, purified from Y. lipolytica mitochondria as part of 2YLF1Fo
binding result [3]: binds

B3: Y. lipolytica F1Fo-ATP synthase subunit b (natural protein, Yarrowia lipolytica, UniProt Q6C105 15-217, looked up)
chain: SNQVDPKVKATSILDSIPGNNVLSKTGVLATGVLGSIYAISNELYIVNDESIVLGVFAAFVVVVAKLGGPGYTSWADGYIENMRNILNTTRDKHTDAVKERIGDVSKLKDVVKTTQDLFAVSKDTVKLEAEVFETKQQVVLAAEAKSVLDSWVRYENSVRQREQKLLTETVISKIEKDLKDPKFQQKILQQSVEDIEKLFAKA
notes: subunit b of the mitochondrial F1Fo-ATP synthase, Yarrowia lipolytica; two trans-membrane helices at its N terminus; also called peripheral stalk subunit b; source: endogenous, purified from Y. lipolytica mitochondria as part of 2YLF1Fo
binding result [3]: binds | binding result [4]: binds

B4: Y. lipolytica F1Fo-ATP synthase subunit 8 (natural protein, Yarrowia lipolytica, UniProt Q36257 1-48, looked up)
chain: MPQLVPFYFTNQIFYGFASLSVIVYLFSIYILPHYLEIYVTRIFITKT
notes: subunit 8 of the mitochondrial F1Fo-ATP synthase, Yarrowia lipolytica; 48 residues; N-terminal MPQL motif, trans-membrane helix ended by Pro33; mitochondrially encoded; also called A6L in human; source: endogenous, purified from Y. lipolytica mitochondria as part of 2YLF1Fo
binding result [1]: binds

B5: Y. lipolytica F1Fo-ATP synthase subunit OSCP (natural protein, Yarrowia lipolytica, UniProt Q6C9B1 25-214, looked up)
chain: APVKVPVQLFGLDGTYATALYTAAAKESDLSKTEGSLAKLRDVFAQQPEVAQIVSNPTLSHEDKQTVVNVLSQAVGGDKTLTNFLTVISDNNRLALIPGIIEKFETLVNASKGLVEATVTSASELDKKTVNRIQAAIAGSSFVGEGELKLNLKVNPDILGGLIVEVAERTVDVSVASKIARLNHVLSEPI
notes: peripheral stalk subunit OSCP of the mitochondrial F1Fo-ATP synthase, Yarrowia lipolytica; source: endogenous, purified from Y. lipolytica mitochondria as part of 2YLF1Fo
binding result [3]: binds

B6: Y. lipolytica F1Fo-ATP synthase subunit f (natural protein, Yarrowia lipolytica, UniProt Q6C9E6 7-103, looked up)
chain: LSTLIPPKVASPATLHGAPNAKRMADVVSFYKALPQGAAPALPKTANPFKLYYRKYFHPKSGKASGAPLLHLILGIFLFGYISDYQFHLKHHKNGAH
notes: subunit f of the mitochondrial F1Fo-ATP synthase, Yarrowia lipolytica; nuclear-encoded; in yeast a 100-residue subunit with a hydrophilic N-terminal domain and a predicted C-terminal trans-membrane helix; source: endogenous, purified from Y. lipolytica mitochondria as part of 2YLF1Fo
binding result [5]: binds

B7: Y. lipolytica F1Fo-ATP synthase subunit γ (natural protein, Yarrowia lipolytica, UniProt Q6C338 22-293, looked up)
chain: ATLREIEMRLKSIKNIEKITNTMKIVASTKLGKAQRAMATSKVYNEASEKVFENSETAVPENIEKRLWVVVSSDKGLCGSIHSQLARTVRRKLLDFESGEKLIDIVAVGEKIKAQLGRSNPEQMRLSFGGTGKEAPTFEEAAHIADEILALDTQYDDIEIVYNKVLSGISFEPIMKESYSAKAIEDAPKFGQYELEDDVVKNLADFSLANTIYAAMAEGHAAEISARRNAMDNASKNASDMINKYSILYNRTRQAVITNELVDIITGASSLE
notes: subunit γ of the mitochondrial F1Fo-ATP synthase, Yarrowia lipolytica; also called central γ subunit; source: endogenous, purified from Y. lipolytica mitochondria as part of the YLF1c10 subcomplex (from 1YLF1Fo)
binding result [6]: binds

B8: Y. lipolytica F1Fo-ATP synthase subunit d (natural protein, Yarrowia lipolytica, UniProt Q6CFH9 1-176, looked up)
chain: MSVAAARSSAVKVDWGKIVSSLGLTGATVSSLQAFRKRHEEAKKNAYELQNQPTTVDFAHYRKVLKNQKVVDEIEQHFKSFKPVTYDVSKQLKTIDAFEAKAIEDAKATEGKVNQEIGDLQKTLENIESARPFDQLSVDDVFKARPDLEKKIEEMVKKGRWSVPGYNEKFGSVVLM
notes: peripheral stalk subunit d of the mitochondrial F1Fo-ATP synthase, Yarrowia lipolytica; also called d subunit; source: endogenous, purified from Y. lipolytica mitochondria as part of 2YLF1Fo
binding result [3]: binds
